Experimental data from paper PMC10902388.

What was measured:
E6AP-Nanoluc (human) [1] = target: E6AP-Nanoluc (human) (UniProt Q05086); experiment: SPR
E6AP-Nanoluc (human) [2] = target: E6AP-Nanoluc (human) (UniProt Q05086); experiment: FRET or BRET

Chain of E6AP-Nanoluc (human) (Q05086 whole entry): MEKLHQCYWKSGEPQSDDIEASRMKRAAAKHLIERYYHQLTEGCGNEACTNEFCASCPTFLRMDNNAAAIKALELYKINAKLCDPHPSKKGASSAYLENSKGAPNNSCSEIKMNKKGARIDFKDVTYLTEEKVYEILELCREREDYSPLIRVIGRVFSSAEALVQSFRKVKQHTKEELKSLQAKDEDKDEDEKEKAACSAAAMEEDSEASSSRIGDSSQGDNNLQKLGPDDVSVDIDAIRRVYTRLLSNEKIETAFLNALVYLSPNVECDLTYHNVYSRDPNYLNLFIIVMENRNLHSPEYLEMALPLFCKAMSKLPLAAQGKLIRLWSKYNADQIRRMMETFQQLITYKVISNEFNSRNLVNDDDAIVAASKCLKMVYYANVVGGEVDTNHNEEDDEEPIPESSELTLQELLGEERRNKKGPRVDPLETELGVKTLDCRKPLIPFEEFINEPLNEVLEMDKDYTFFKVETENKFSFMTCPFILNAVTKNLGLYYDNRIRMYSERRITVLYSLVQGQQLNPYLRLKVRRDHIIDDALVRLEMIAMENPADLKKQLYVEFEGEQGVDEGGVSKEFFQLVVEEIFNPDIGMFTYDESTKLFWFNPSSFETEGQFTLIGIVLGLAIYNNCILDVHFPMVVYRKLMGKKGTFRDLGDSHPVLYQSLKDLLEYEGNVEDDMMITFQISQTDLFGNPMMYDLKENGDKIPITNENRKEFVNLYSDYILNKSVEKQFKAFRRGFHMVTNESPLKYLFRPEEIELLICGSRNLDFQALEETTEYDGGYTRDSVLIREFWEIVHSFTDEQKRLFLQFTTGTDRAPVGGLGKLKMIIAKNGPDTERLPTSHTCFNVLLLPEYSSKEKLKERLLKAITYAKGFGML

In the case of “MBP-16E6-HaloTag protein (from UniProt P03126) (natural protein)”, the Kd (E6AP-Nanoluc (human) [1]) is reported as 4 nM and the Kd (E6AP-Nanoluc (human) [2]) is reported as 15.3 nM.
